Data from publication PMC4113718.

Molecular target: CXC chemokine receptor (CXCR) 4 on THP-1 cells (human (endogenous in THP-1)) (UniProt P61073)
Sequence (P61073 whole entry): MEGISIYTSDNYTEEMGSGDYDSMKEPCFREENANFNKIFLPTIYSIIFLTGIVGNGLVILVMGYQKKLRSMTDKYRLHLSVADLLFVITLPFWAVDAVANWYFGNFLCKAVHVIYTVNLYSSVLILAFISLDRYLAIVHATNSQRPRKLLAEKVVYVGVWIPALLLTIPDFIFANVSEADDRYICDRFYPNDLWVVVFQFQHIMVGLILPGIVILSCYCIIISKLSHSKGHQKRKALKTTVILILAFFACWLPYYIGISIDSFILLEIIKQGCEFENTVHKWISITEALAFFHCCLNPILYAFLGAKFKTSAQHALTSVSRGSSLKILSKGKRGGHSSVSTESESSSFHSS

Row | LogIC50 (pM), reduction of cAMP levels in forskolin-stimulated THP-1 cells | bottom plateau (%), reduction of cAMP levels in forskolin-stimulated THP-1 cells [%] | Substance
1 | 2.3 log(pM) | 54.1 | Ub(1–74)NN (from UniProt P0CG47 1-76) (ligand)
2 | – | 42.8 | Ub(1–74)RR (from UniProt P0CG47 1-76) (ligand)
3 | – | 46.7 | Ub(1–74)VV (from UniProt P0CG47 1-76) (ligand)
